Assay results from article PMC13681993 (2026).

Experiments:
[1] = target: T1, EGFR C-tail Y1016/Y1138 980-1210 (Homo sapiens, UniProt P00533); assay: BLI
T1 chain: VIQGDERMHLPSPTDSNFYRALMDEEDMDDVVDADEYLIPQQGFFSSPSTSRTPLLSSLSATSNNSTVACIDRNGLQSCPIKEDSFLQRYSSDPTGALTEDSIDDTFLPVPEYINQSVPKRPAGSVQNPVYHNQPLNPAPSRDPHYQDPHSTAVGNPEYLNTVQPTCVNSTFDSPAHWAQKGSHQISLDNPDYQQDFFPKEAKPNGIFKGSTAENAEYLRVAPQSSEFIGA

[2] = target: T2, EGFR C-tail Y1016/Y1092 980-1210 (Homo sapiens, UniProt P00533); assay: BLI
T2 chain: T1 chain

Kd [1]: 63.4 nM
Kd [2]: 429 nM
B1: PLCγ1 tandem SH2 N-SH2-C-SH2 (protein)
chain: WFHGKLGAGRDGRHIAERLLTEYCIETGAPDGSFLVRESETFVGDYTLSFWRNGKVQHCRIHSRQDAGTPKFFLTDNLVFDSLYDLITHYQQVPLRCNEFEMRLSEPVPQTNAHESKEWYHASLTRAQAEHMLMRVPRDGAFLVRKRNEPNSYAISFRAEGKIKHCRVQQEGQTVMLGNSEFDSLVDLISYYEKHPLYRKMKLRYPI
